Reference: the supplement of paper PMC9112550, “Optimization of the antimicrobial peptide Bac7 by deep mutational scanning” (BMC Biology, 2022)

System: Escherichia coli TOP10
Assay: shrunken log2 fold change of peptide-encoding DNA abundance (4.5 h post-induction vs induction); higher = less antimicrobial activity (less host growth inhibition)
Settings: time post-induction: 4.5 h; library: site-saturation at positions 5, 18, 19, 20
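Also: peptides expressed intracellularly from a pBAD plasmid library in pooled LB shake-flask culture, induced with 0.3% L-arabinose, DNA abundance read by NGS, three biological replicates, DESeq2 with apeglm shrinkage.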

Row | Sequence | shrunken log2 fold change
1 | RRIRQRPPRLPRPRPRPCKCPRP | -0.000687
2 | RRIRQRPPRLPRPRPRPCLTPRP | 0.0158
3 | RRIRQRPPRLPRPRPRPCMEPRP | -0.1
4 | RRIRQRPPRLPRPRPRPCMFPRP | -0.214
5 | RRIRQRPPRLPRPRPRPCMLPRP | -0.239
6 | RRIRQRPPRLPRPRPRPCMRPRP | 0.0607
7 | RRIRQRPPRLPRPRPRPCNIPRP | -0.646
8 | RRIRQRPPRLPRPRPRPCPNPRP | -0.152
9 | RRIRQRPPRLPRPRPRPCQGPRP | -0.0332
10 | RRIRQRPPRLPRPRPRPCQRPRP | -0.0113
11 | RRIRQRPPRLPRPRPRPCSFPRP | -0.0439
12 | RRIRQRPPRLPRPRPRPCWDPRP | -0.155
13 | RRIRQRPPRLPRPRPRPDCMPRP | 0.00805
14 | RRIRQRPPRLPRPRPRPDEKPRP | 0.02
15 | RRIRQRPPRLPRPRPRPDFAPRP | -0.0596
16 | RRIRQRPPRLPRPRPRPDGCPRP | -0.103
17 | RRIRQRPPRLPRPRPRPDGGPRP | 0.255
18 | RRIRQRPPRLPRPRPRPDGPPRP | 0.0029
19 | RRIRQRPPRLPRPRPRPDHWPRP | -0.368
20 | RRIRQRPPRLPRPRPRPDHYPRP | -0.213
21 | RRIRQRPPRLPRPRPRPDIEPRP | -0.32
22 | RRIRQRPPRLPRPRPRPDIQPRP | 0.00127
23 | RRIRQRPPRLPRPRPRPDLEPRP | -0.0293
24 | RRIRQRPPRLPRPRPRPDLFPRP | -0.0321
25 | RRIRQRPPRLPRPRPRPDPHPRP | -0.0406

Row | Sequence | shrunken log2 fold change
26 | RRIRQRPPRLPRPRPRPDPMPRP | -0.0539
27 | RRIRQRPPRLPRPRPRPDRAPRP | 0.12
28 | RRIRQRPPRLPRPRPRPDRFPRP | 0.0204
29 | RRIRQRPPRLPRPRPRPDRGPRP | 0.0176
30 | RRIRQRPPRLPRPRPRPDRSPRP | 0.0153
31 | RRIRQRPPRLPRPRPRPDSGPRP | -0.0171
32 | RRIRQRPPRLPRPRPRPDSHPRP | -0.065
33 | RRIRQRPPRLPRPRPRPDTDPRP | -0.00927
34 | RRIRQRPPRLPRPRPRPDTFPRP | -0.00762
35 | RRIRQRPPRLPRPRPRPDTIPRP | 0.0406
36 | RRIRQRPPRLPRPRPRPDTYPRP | -0.154
37 | RRIRQRPPRLPRPRPRPDVPPRP | 0.0169
38 | RRIRQRPPRLPRPRPRPDYEPRP | 0.0301
39 | RRIRQRPPRLPRPRPRPDYLPRP | -0.212
40 | RRIRQRPPRLPRPRPRPDYVPRP | 0.07
41 | RRIRQRPPRLPRPRPRPEAAPRP | 0.751
42 | RRIRQRPPRLPRPRPRPEANPRP | 0.0119
43 | RRIRQRPPRLPRPRPRPECDPRP | 0.0401
44 | RRIRQRPPRLPRPRPRPECKPRP | -0.0182
45 | RRIRQRPPRLPRPRPRPEDDPRP | -0.14
46 | RRIRQRPPRLPRPRPRPEFIPRP | -0.163
47 | RRIRQRPPRLPRPRPRPEGDPRP | 0.00223
48 | RRIRQRPPRLPRPRPRPEHAPRP | 0.0519
49 | RRIRQRPPRLPRPRPRPEHKPRP | -0.00178
50 | RRIRQRPPRLPRPRPRPEHMPRP | -0.0877

Row | Sequence | shrunken log2 fold change
51 | RRIRQRPPRLPRPRPRPEITPRP | 0.0276
52 | RRIRQRPPRLPRPRPRPEKDPRP | 0.343
53 | RRIRQRPPRLPRPRPRPELMPRP | -0.0508
54 | RRIRQRPPRLPRPRPRPENRPRP | 0.0211
55 | RRIRQRPPRLPRPRPRPEQDPRP | 0.311
56 | RRIRQRPPRLPRPRPRPEQQPRP | -0.0316
57 | RRIRQRPPRLPRPRPRPERDPRP | 0.321
58 | RRIRQRPPRLPRPRPRPERQPRP | -0.0407
59 | RRIRQRPPRLPRPRPRPETCPRP | 0.0408
60 | RRIRQRPPRLPRPRPRPETGPRP | 0.0496
61 | RRIRQRPPRLPRPRPRPETPPRP | 0.495
62 | RRIRQRPPRLPRPRPRPETQPRP | 0.0133
63 | RRIRQRPPRLPRPRPRPEVNPRP | -0.142
64 | RRIRQRPPRLPRPRPRPEWSPRP | 0.0925
65 | RRIRQRPPRLPRPRPRPEWYPRP | 0.0539
66 | RRIRQRPPRLPRPRPRPEYPPRP | -0.22
67 | RRIRQRPPRLPRPRPRPFAAPRP | 0.336
68 | RRIRQRPPRLPRPRPRPFACPRP | -0.111
69 | RRIRQRPPRLPRPRPRPFADPRP | -0.0142
70 | RRIRQRPPRLPRPRPRPFARPRP | -0.0149
71 | RRIRQRPPRLPRPRPRPFCPPRP | -0.236
72 | RRIRQRPPRLPRPRPRPFEHPRP | -0.00133
73 | RRIRQRPPRLPRPRPRPFEQPRP | 0.106
74 | RRIRQRPPRLPRPRPRPFGRPRP | 0.037
75 | RRIRQRPPRLPRPRPRPFKIPRP | -0.00995

Row | Sequence | shrunken log2 fold change
76 | RRIRQRPPRLPRPRPRPFKYPRP | -0.0224
77 | RRIRQRPPRLPRPRPRPFLCPRP | -0.336
78 | RRIRQRPPRLPRPRPRPFMDPRP | 0.0499
79 | RRIRQRPPRLPRPRPRPFMSPRP | -0.0241
80 | RRIRQRPPRLPRPRPRPFPTPRP | -0.0177
81 | RRIRQRPPRLPRPRPRPFQDPRP | -0.195
82 | RRIRQRPPRLPRPRPRPFSGPRP | -0.0802
83 | RRIRQRPPRLPRPRPRPFVPPRP | 0.0357
84 | RRIRQRPPRLPRPRPRPFWTPRP | -0.166
85 | RRIRQRPPRLPRPRPRPGAAPRP | 0.553
86 | RRIRQRPPRLPRPRPRPGCCPRP | 0.202
87 | RRIRQRPPRLPRPRPRPGCMPRP | 0.175
88 | RRIRQRPPRLPRPRPRPGDRPRP | 0.132
89 | RRIRQRPPRLPRPRPRPGDSPRP | -0.0573
90 | RRIRQRPPRLPRPRPRPGFTPRP | -0.11
91 | RRIRQRPPRLPRPRPRPGFVPRP | 0.217
92 | RRIRQRPPRLPRPRPRPGHEPRP | 0.104
93 | RRIRQRPPRLPRPRPRPGIAPRP | 0.719
94 | RRIRQRPPRLPRPRPRPGIDPRP | 0.0179
95 | RRIRQRPPRLPRPRPRPGKEPRP | 0.00212
96 | RRIRQRPPRLPRPRPRPGKLPRP | -0.0396
97 | RRIRQRPPRLPRPRPRPGNQPRP | 0.0157
98 | RRIRQRPPRLPRPRPRPGPNPRP | -0.0457
99 | RRIRQRPPRLPRPRPRPGPVPRP | -0.0186
100 | RRIRQRPPRLPRPRPRPGSHPRP | -0.108

Row | Sequence | shrunken log2 fold change
101 | RRIRQRPPRLPRPRPRPGSYPRP | -0.2
102 | RRIRQRPPRLPRPRPRPGTRPRP | 0.111
103 | RRIRQRPPRLPRPRPRPGWMPRP | -0.115
104 | RRIRQRPPRLPRPRPRPGWVPRP | -0.124
105 | RRIRQRPPRLPRPRPRPHADPRP | -0.43
106 | RRIRQRPPRLPRPRPRPHAPPRP | -0.0421
107 | RRIRQRPPRLPRPRPRPHCEPRP | -0.0142
108 | RRIRQRPPRLPRPRPRPHCHPRP | -0.164
109 | RRIRQRPPRLPRPRPRPHCWPRP | -0.0628
110 | RRIRQRPPRLPRPRPRPHETPRP | -0.0223
111 | RRIRQRPPRLPRPRPRPHFAPRP | 0.0503
112 | RRIRQRPPRLPRPRPRPHGAPRP | 0.0316
113 | RRIRQRPPRLPRPRPRPHGRPRP | -0.0154
114 | RRIRQRPPRLPRPRPRPHHFPRP | -0.0176
115 | RRIRQRPPRLPRPRPRPHHLPRP | -0.122
116 | RRIRQRPPRLPRPRPRPHIFPRP | 0.0297
117 | RRIRQRPPRLPRPRPRPHMHPRP | -0.39
118 | RRIRQRPPRLPRPRPRPHMKPRP | -0.0294
119 | RRIRQRPPRLPRPRPRPHNMPRP | -0.283
120 | RRIRQRPPRLPRPRPRPHNTPRP | -0.902
121 | RRIRQRPPRLPRPRPRPHPNPRP | -0.389
122 | RRIRQRPPRLPRPRPRPHQAPRP | -0.241
123 | RRIRQRPPRLPRPRPRPHSEPRP | -0.0749
124 | RRIRQRPPRLPRPRPRPHVNPRP | 0.0398
125 | RRIRQRPPRLPRPRPRPHVVPRP | -0.086

Row | Sequence | shrunken log2 fold change
126 | RRIRQRPPRLPRPRPRPHWGPRP | 0.0433
127 | RRIRQRPPRLPRPRPRPHWLPRP | -0.222
128 | RRIRQRPPRLPRPRPRPHWYPRP | -0.0983
129 | RRIRQRPPRLPRPRPRPHYAPRP | -0.0213
130 | RRIRQRPPRLPRPRPRPHYCPRP | -0.0397
131 | RRIRQRPPRLPRPRPRPHYIPRP | -0.298
132 | RRIRQRPPRLPRPRPRPHYNPRP | -1.22
133 | RRIRQRPPRLPRPRPRPICAPRP | 0.36
134 | RRIRQRPPRLPRPRPRPICDPRP | -0.0181
135 | RRIRQRPPRLPRPRPRPICSPRP | -0.0668
136 | RRIRQRPPRLPRPRPRPIFYPRP | -0.418
137 | RRIRQRPPRLPRPRPRPIHRPRP | -0.0654
138 | RRIRQRPPRLPRPRPRPIIAPRP | 0.00878
139 | RRIRQRPPRLPRPRPRPILYPRP | 0.0724
140 | RRIRQRPPRLPRPRPRPIPPPRP | 0.0581
141 | RRIRQRPPRLPRPRPRPIQWPRP | 0.34
142 | RRIRQRPPRLPRPRPRPIRGPRP | -0.0547
143 | RRIRQRPPRLPRPRPRPISFPRP | -0.0842
144 | RRIRQRPPRLPRPRPRPISLPRP | -0.527
145 | RRIRQRPPRLPRPRPRPITDPRP | 0.00271
146 | RRIRQRPPRLPRPRPRPITLPRP | -0.418
147 | RRIRQRPPRLPRPRPRPITMPRP | 0.00801
148 | RRIRQRPPRLPRPRPRPIVHPRP | -0.265
149 | RRIRQRPPRLPRPRPRPIVSPRP | -0.0135
150 | RRIRQRPPRLPRPRPRPIWEPRP | 0.0296
